According to patent US20090136516A1 (DUKE UNIVERSITY, published 2009):

Tests used:
mouse CD20 [1] = target: T1, mouse CD20 (mouse, UniProt P19437 1-291); assay: indirect immunofluorescence, flow cytometry, cultured mouse spleen B cells at 37 C; design: reference not given here
T1 construct: whole, on cells; Endogenous mouse CD20 on primary B cells; also called cell-surface CD20
T1 sequence (looked up): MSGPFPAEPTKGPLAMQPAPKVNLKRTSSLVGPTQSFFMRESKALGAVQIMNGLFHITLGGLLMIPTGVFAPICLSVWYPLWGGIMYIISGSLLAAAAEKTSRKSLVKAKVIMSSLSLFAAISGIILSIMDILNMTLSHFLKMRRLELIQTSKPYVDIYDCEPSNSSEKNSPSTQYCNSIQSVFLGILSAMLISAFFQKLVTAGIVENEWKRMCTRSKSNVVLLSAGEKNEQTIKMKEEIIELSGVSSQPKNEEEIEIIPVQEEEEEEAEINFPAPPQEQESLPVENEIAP

mouse CD20 [2] = target: T1, mouse CD20; assay: flow cytometry, mouse spleen CD19+ B cells, mAb at 0.5 µg/mL, isotype-specific secondary antibody
Description: Twelve mouse anti-mouse CD20 monoclonal antibodies, with representatives of each IgG isotype, were assessed for their ability to bind B cells and deplete them in vivo. Each monoclonal antibody reacted uniformly with CD19⁺ primary B cells in vitro with characteristic mean fluorescence intensities that were independent of monoclonal antibody isotype (FIG. 6A). When monoclonal antibody reactivity with primary B cells was assessed over a range of monoclonal antibody concentrations, most monoclonal antibodies reached saturating levels of staining when used at concentrations between 1-10 μg/mL (FIG. 6B). […] When all monoclonal antibodies were used at 0.5 μg/mL, each monoclonal antibody reacted uniformly with CD19⁺ primary B cells with characteristic low to high mean fluorescence intensities (FIG. 6C, Table 5). Similar results were obtained using a mouse CD20 cDNA-transfected pre-B cell line with anti-mouse Ig secondary antibody. Based on this analysis, the MB20-1 monoclonal antibody represented monoclonal antibodies with the lowest relative affinity/avidity, while the MB20-18 monoclonal antibody reacted strongly with B cells and stained B cells at the highest levels of all 12 anti-CD20 monoclonal antibodies (Table 5).

increase in antibody binding over time (mouse CD20 [1]): 97% | B cell reactivity (mean linear fluorescence intensity) (mean linear fluorescence intensity) (mouse CD20 [2]): 158
B1: MB20-11 monoclonal antibody (antibody, part only; not given: light chain, V domains shown, part only)
VH: EVQLQESGPELVKPGASVKMSCKASGYKITDYNMHWVKQSHGKSLEWIGYIAPYNGGTTYNQKFKGKATLTVNKSSSTAYMELRSLTSEDSAVYYCAGALDYWGQGTSVTVSS
